Reference: patent publication US20210052630A1, “Methods and Compositions for Preventing or Treating Heart Disease” (Macau University of Science and Technology, priority 2019, published 2021)

B1: CGCGGAGUAGAGCAGUUUGGUAGCUCGCAAGGCUCAUAACCUUGAGGUCACGGGUUCAAAUCCUGUCUCCGCAACCA (nucleic acid)
chain: CGCGGAGUAGAGCAGUUUGGUAGCUCGCAAGGCUCAUAACCUUGAGGUCACGGGUUCAAAUCCUGUCUCCGCAACCA
modifications: expressed or natural sequence
notes: tRNA isolated from Panax ginseng C; A. Mey; 77 mer
B2: GCGGAUGUAGCCAAGUGGAUCAAGGCAGUGGAUUGUGAAUCCACCAUGCGCGGGUUCAAUUCCCGUCGUUCGCCCCA (nucleic acid)
chain: GCGGAUGUAGCCAAGUGGAUCAAGGCAGUGGAUUGUGAAUCCACCAUGCGCGGGUUCAAUUCCCGUCGUUCGCCCCA
modifications: expressed or natural sequence
notes: as for B1
B3: GCGGAUAUAGUCGAAUGGUAAAAUUUCUCUUUGCCAAGGAGAAGACGCGGGUUCGAUUCCCGCUAUCCGCCCCA (nucleic acid)
chain: GCGGAUAUAGUCGAAUGGUAAAAUUUCUCUUUGCCAAGGAGAAGACGCGGGUUCGAUUCCCGCUAUCCGCCCCA
modifications: expressed or natural sequence
notes: tRNA isolated from Panax ginseng C; A. Mey; 74 mer

Columns and labels:
Assay type in all cases: cell-based, Rat
H9C2 cells [1] = assay: MTT cell viability assay, H9C2 cells exposed to hypoxia/reoxygenation (H/R) injury; conditions: for cell viability (growth and proliferation of cardiomyocytes) under hypoxia/reoxygenation: 50 nM RNA, vs H/R group, FIG. 3B; for cardioprotective effect (cell viability), concentration series: 100, 50, 25, 12.5 nM, FIG. 4A/4B
Method: (§1) H9C2 cell lines were cultured in Dulbecco's Modified Eagle Medium (DMEM) containing 10% FBS and 1% penicillin/streptomycin at humidified atmosphere containing 5% CO2 at 37° C.
In the cell viability assay or mitochondrial viability assay, exponentially growing cells of H9C2 cell line were plated in 96-well microplate at a density of 5000 cells per well in 100 μL of culture medium and allowed to adhere for 24 h before treatment. For hypoxia, hypoxic treatment was achieved by exposing cells to KRB buffer (composition in: NaCl 115 mM, KCl 4.7 mM, CaCl2 2.5 mM, KH2PO4 1.2 mM, MgSO4 1.2 mM, NaHCO3 24 mM, HEPES 10 mM; pH 7.4) at 37° C. for 3 hr in an oxygen-free hypoxic chamber (Stem Cell Technologies, United States), serial concentrations of RNA molecules obtained in Example 1 were then added to the cells […]. For hypoxia/reoxygenation (H/R), Hypoxic treatment was achieved by exposing cells in glucose-free DMEM under conditions of 94.9% N2/5% CO2/0.1% O2 for 12 hr at a hypoxystation (whitley H35 hypoxystation, Don Whitley Scientific Ltd., England), serial concentrations of RNA molecules obtained in Example 1 and 2 were then added to the cells and reoxygenation by incubating in the normoxic condition (95% air/5% CO2) at 37° C. for 6 hr. After hypoxia or hypoxia/reoxygenation, MTT solution (100 μL per well, 0.5 mg/mL solution) or mitochondrial viability stain solution (follow the manufacture's instruction) was added to each well and incubated for 4 h at 37° C. Subsequently, for cell viability assay, 150 μL dimethyl sulfoxide (DMSO) were added and the optical densities of the resulting solutions were calorimetrically determined at 570 nm using a SpectraMax Paradigm multi-mode microplate reader (Molecular Devices, Sunnyvale, Calif., U.S.A). For mitochondrial viability assay, fluorescence detected at 550 nm excitation and 590 nm emission using SpectraMax Paradigm multi-mode microplate reader. Dose-response curves were obtained and calculated by GraphPad Prism 6 (GraphPad, La Jolla, Calif., USA). Each experiment was carried out for three times and expressed as means±standard deviation.

H9C2 cells [2] = assay: Mitochondrial viability assay, H9C2 cells exposed to hypoxia/reoxygenation (H/R) injury; conditions: 300, 100, 30, 3 nM (FIG. 7A/7B)
Method: as §1
(§2) In the cell viability assay or mitochondrial viability assay, exponentially growing cells of H9C2 cell line were plated in 96-well microplate at a density of 5000 cells per well in 100 μL of culture medium and allowed to adhere for 24 h before treatment. […] Subsequently, for cell viability assay, 150 μL dimethyl sulfoxide (DMSO) were added and the optical densities of the resulting solutions were calorimetrically determined at 570 nm using a SpectraMax Paradigm multi-mode microplate reader (Molecular Devices, Sunnyvale, Calif., U.S.A). For mitochondrial viability assay, fluorescence detected at 550 nm excitation and 590 nm emission using SpectraMax Paradigm multi-mode microplate reader. Dose-response curves were obtained and calculated by GraphPad Prism 6 (GraphPad, La Jolla, Calif., USA). Each experiment was carried out for three times and expressed as means±standard deviation.

H9C2 cell cytoskeleton = assay: Cytoskeleton imaging (Rhodamine Phalloidin/DAPI, confocal) of H9C2 cells after H/R injury; conditions: 900, 300, 100, 30, 10, 3, 0.3 nM, FIG. 8A/8B
Method: H9C2 cells were plated in p-slide 8 well plate (Ibidi GmbH, Germany) at a density of 10000 cells per well in 200 μL of culture medium and allowed to adhere for 24 h before treatment. Hypoxic treatment was achieved by exposing cells in glucose-free DMEM under conditions of 94.9% N2/5% CO2/0.1% O2 for 12 hr at a hypoxystation (whitley H35 hypoxystation, Don Whitley Scientific Ltd., England), serial concentrations of RNA molecules obtained in Example 2 were then added to the cells and reoxygenation by incubating in the normoxic condition (95% air/5% CO2) at 37° C. for 6 hr. After hypoxia/reoxygenation, cells were stained with Rhodamine Phalloidin and DAPI following the manufacturer's instruction. Images were acquired on a Leica TCS SP8 Confocal Microscopy with a 20× objective.

H9C2 cells [3] = assay: MTT cell viability assay, H9C2 cells under H/R injury, RNA transfected with DharmaFECT4; conditions: 300, 100, 30 nM, vs H/R+DharmaFECT4 group, FIG. 11A/11B
Method: FIG. 11A is a bar chart showing the cell viability of H9C2 cells exposed to hypoxia/reoxygenation (H/R) injury after treatment with RNA molecule HC50 at different concentrations, i.e. 300 nM, 100 nM and 30 nM, by transfected with DharmaFECT4 transfection reagent, compared to a control group, a H/R along with DharmaFECT4 treated group in accordance with an example embodiment (mean±SD n=3; **, p<0.01, vs. vehicle H/R+ DharmaFECT4; ####, p<0.0001 vs. vehicle control). […]
as §2

H9C2 cell line = assay: MTT cell viability assay, H9C2 cells exposed to hypoxia injury; conditions: 300 nM RNA, H9C2, hypoxia 3 hr, vs hypoxia group, FIG. 3A

| Molecule | cell viability (growth and proliferation of cardiomyocytes) under hypoxia (H9C2 cell line) | cell viability (growth and proliferation of cardiomyocytes) under hypoxia/reoxygenation (H9C2 cells [1]; H9C2, H/R) | cardioprotective effect (cell viability), concentration series (H9C2 cells [1]; H9C2, H/R) | also measured |
| --- | --- | --- | --- | --- |
| HC50: double-stranded RNA, sense SEQ ID NO: 2 and antisense SEQ ID NO: 234, 19 base pairs (sense GCGGAUGUAGCCAAGUGGA; antisense UCCACUUGGCUACAUCCGC; cholesterol-conjugated double-stranded RNA, conjugate position not given here) |  |  |  | cell viability (growth and proliferation of cardiomyocytes), screen of synthesized RNA molecules (H9C2 cells [1]; 300 nM, H9C2, H/R, FIG. 5A/5B): effective in promoting the growth and proliferation of cardiomyocytes; cell viability, protective effect against H/R injury, concentration series (H9C2 cells [1]; 900, 300, 30, 3, 0.3 nM, H9C2, FIG. 6A/6B): dose-dependent protective effect against hypoxia/reoxygenation (H/R) injury; mitochondrial viability, protective effect against H/R injury, concentration series (H9C2 cells [2]): dose-dependent protective effect against hypoxia/reoxygenation (H/R) injury; protective effect on cytoskeleton destruction (H9C2 cell cytoskeleton): significantly relieve cytoskeleton destruction of H9C2 cells caused by hypoxia/reoxygenation (H/R) injury in a dose-dependent manner; cell viability (growth and proliferation of cardiomyocytes), transfected with DharmaFECT4 (H9C2 cells [3]): promoted the growth and proliferation of cardiomyocytes against hypoxia/reoxygenation (H/R) injury in a dose-dependent manner |
| B1 | capable to promote the growth and proliferation of cardiomyocytes |  |  |  |
| B2 |  | capable to promote the growth and proliferation of cardiomyocytes | significant cardioprotective effects in a dose-dependent manner |  |
| B3 | capable to promote the growth and proliferation of cardiomyocytes | capable to promote the growth and proliferation of cardiomyocytes | significant cardioprotective effects in a dose-dependent manner |  |
